Where “and” joins values, the source holds several entries; their conditions need not be identical. Equal values may be shown once.
Assays:
[1] = target: TraM (TraR antiactivator) of plasmid pAoF64/95 (Agrobacterium spp. (plasmid pAoF64/95)); test: two-hybrid; bacterial two-hybrid (LexA-WT and LexA-MUT fusions) in E. coli SU202; heterodimerization represses lacZ; quantitative beta-galactosidase activity against the strain with empty vectors pSR658 and pSR659, n = 3
[2] = target: Jun (LexA fusion, positive control of the bacterial two-hybrid system); test: as above

| Substance | fold lower beta-galactosidase activity than the empty-vector control strain [1] | fold lower beta-galactosidase activity than the empty-vector control strain [2] [fold] |
| --- | --- | --- |
| TmsPs (short form of TmsP, tra M sequestering protein, of plasmid pAoF64/95) (natural protein) | 2 fold and 3 fold |  |
| Fos (LexA fusion, positive control of the bacterial two-hybrid system) (natural protein) |  | 52 |
